# IntAct's records for PubMed 22927646
# B1: Isoform 2 of Acid ceramidase (Homo sapiens), Q13510-2 (parent)
# chain: MNCCIGLGEKARGSHRASYPSLSALFTEASILGFGSFAVKAQWTEDCRKSTYPPSGPTYRGAVPWYTINLDLPPYKRWHELMLDKAPVLKVIVNSLKNMINTFVPSGKIMQVVDEKLPGLLGNFPGPFEEEMKGIAAVTDIPLGEIISFNIFYELFTICTSIVAEDKKGHLIHGRNMDFGVFLGWNINNDTWVITEQLKPLTVNLDFQRNNKTVFKASSFAGYVGMLTGFKPGLFSLTLNERFSINGGYLGILEWILGKKDVMWIGFLTRTVLENSTSYEEAKNLLTKTKILAPAYFILGGNQSGEGCVITRDRKESLDVYELDAKQGRWYVVQTNYDRWKHPFFLDDRRTPAKMCLNRTSQENISFETMYDVLSTKPVLNKLTVYTTLIDVTKGQFETYLRDCPDPCIGW
# Variants of: B1
# Conditions: with stf1_human NR5A1, Q13285
# Chain of stf1_human NR5A1, Q13285 (Q13285 whole entry): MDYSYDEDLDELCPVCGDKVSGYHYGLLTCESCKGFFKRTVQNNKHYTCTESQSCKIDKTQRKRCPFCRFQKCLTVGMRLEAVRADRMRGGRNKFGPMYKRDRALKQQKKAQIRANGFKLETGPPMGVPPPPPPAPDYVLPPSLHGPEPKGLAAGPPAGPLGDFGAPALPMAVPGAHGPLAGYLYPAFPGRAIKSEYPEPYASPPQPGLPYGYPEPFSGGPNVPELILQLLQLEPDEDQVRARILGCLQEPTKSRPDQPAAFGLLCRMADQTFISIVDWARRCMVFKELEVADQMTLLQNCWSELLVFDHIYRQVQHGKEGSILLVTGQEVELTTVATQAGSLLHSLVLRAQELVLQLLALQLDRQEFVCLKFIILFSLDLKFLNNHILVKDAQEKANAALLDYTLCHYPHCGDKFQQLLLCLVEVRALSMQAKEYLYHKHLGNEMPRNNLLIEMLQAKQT
row,effect of a mutation on the interaction,Variant
1,disrupting interaction strength,L22A;L25A
